This assay has as its target human CD1a expressed on cells (human) (UniProt P06126). The experiment in a line: cell-based or functional assay.

Chain of human CD1a expressed on cells (human) (P06126 17-327): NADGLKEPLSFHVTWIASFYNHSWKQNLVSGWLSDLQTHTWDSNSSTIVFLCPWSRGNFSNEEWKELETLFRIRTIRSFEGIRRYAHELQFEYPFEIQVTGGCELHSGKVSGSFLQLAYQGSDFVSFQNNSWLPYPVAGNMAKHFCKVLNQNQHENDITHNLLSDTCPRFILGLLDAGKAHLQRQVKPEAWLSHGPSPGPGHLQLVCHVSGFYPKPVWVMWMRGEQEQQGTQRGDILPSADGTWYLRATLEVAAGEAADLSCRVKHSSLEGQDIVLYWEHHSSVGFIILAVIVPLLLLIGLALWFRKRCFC

On to “Human IgG1 (EFN) isotype control (antibody)”, for which the CD69 expression, IC50 is over 100 nM and the IL-2 secretion, IC50 was over 100 nM.
On to OKT6-human IgG1 (EFN) (antibody), for which the CD69 expression, IC50 was found to be 0.042 nM and the IL-2 secretion, IC50 was 0.028 nM.

Source of the values: US20220112291A1.
